{"source": "patent US20250011433A1", "about": "(GLIKNIK, published 2025)", "binders": {"B1": {"name": "G1044 (Fc fusion)", "chain": "EPKSCDKTHTCPPCPAPELLGGDSVFLFPPKPKDTLMISRTPEVTCVVVCVEFEDPEVKFNWYVDGVEVHNAKTKPREEQYNSTYRVVSVLTVLHQDWLNGKEYKCKVTNKALPAPIEKTISKAKGQPREPQVYTLPPSRDELTKNQVSLTCLVKGFYPSDIAVEWESNGQPENNYKTTPPVLDSDGSFFLYSKLTVDKSRWQQGNVFSCSVMHEALHNHYTQKSLSLSPGKERKCCVECPPCP"}, "B2": {"name": "G1001 (Fc fusion)", "chain": "ERKCCVECPPCPEPKSCDKTHTCPPCPAPELLGGPSVFLFPPKPKDTLMISRTPEVTCVVVDVEFEDPEVKFNWYVDGVEVHNAKTKPREEQYASTYRVVSVLTVLHQDWLNGKEYKCKVTNKALPAPIEKTISKAKGQPREPQVYTLPPSREEMTKNQVSLTCLVKGFYPSDIAVEWESNGQPENNYKTTPPVLDSDGSFFLYSKLTVDKSRWQQGNVFSCSVMHEALHNHYTQKSLSLSPGK", "notes": "G019 background, S267E/H268F/S324T/N297A"}, "B3": {"name": "G1006 (Fc fusion)", "chain": "B1 chain with D23P, C50A", "notes": "G045c background, D265A/S267E/H268F/S324T; leader 1-20 cleaved"}, "B4": {"name": "G1043 (Fc fusion)", "chain": "B1 chain with C50G, D141E, L143M", "notes": "G045c background, P238D/D265G/S267E/H268F/S324T; leader 1-20 cleaved"}, "B5": {"name": "G1042 (Fc fusion)", "chain": "B1 chain with E18P, G21R, D23P, C50D, L113F", "notes": "G045c background, E233P/G236R/S267E/H268F/S324T/L328F; leader 1-20 cleaved"}, "B6": {"name": "G1046 (Fc fusion)", "chain": "B1 chain with C50W, D141E, L143M", "notes": "G045c background, P238D/D265W/S267E/H268F/S324T; leader 1-20 cleaved"}, "B7": {"name": "G1025 (Fc fusion)", "chain": "B1 chain with C50D", "notes": "G045c background, P238D/S267E/H268F/S324T; leader 1-20 cleaved"}, "B8": {"name": "G1027 (Fc fusion)", "chain": "B1 chain with C50D, N82A", "notes": "G045c background, P238D/S267E/H268F/N297A/S324T; leader 1-20 cleaved"}, "B9": {"name": "G1071d2 (Fc fusion)", "chain": "B1 chain with D23P, C50D, E52S, T84A", "notes": "G045c background, H268F/S324T/T299A; leader 1-20 cleaved"}, "B10": {"name": "G1048 (Fc fusion)", "chain": "B2 chain with G33R, A94N, L125F", "notes": "G019 background, G236R/L328F/S267E/H268F/S324T"}}, "note": "Numbering of substitutions follows the chain as printed. In names and notes the source's numbering stands."}
{"target": "T1, FcγRI (UniProt P12314 16-288)", "T1 construct": "also called CD64", "T1 sequence (P12314 16-288 limits assumed)": "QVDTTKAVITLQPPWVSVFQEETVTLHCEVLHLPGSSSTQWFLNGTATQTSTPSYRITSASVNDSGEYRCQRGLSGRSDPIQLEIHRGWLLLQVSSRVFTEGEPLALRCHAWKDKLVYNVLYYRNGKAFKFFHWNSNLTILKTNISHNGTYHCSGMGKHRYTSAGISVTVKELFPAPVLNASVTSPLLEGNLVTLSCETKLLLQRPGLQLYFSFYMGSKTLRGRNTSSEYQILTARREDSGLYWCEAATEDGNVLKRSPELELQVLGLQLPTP", "assay": "BLI (Octet)"}
{"binder": "B1", "binding result": "binds"}
{"binder": "B2", "binding result": "binds"}
{"target": "T2, C1q (UniProt P02745 23-245; P02746 28-253; P02747 29-245)", "T2 construct": "bought C1q coated on ELISA plates at 1 µg/ml; also called complement C1q; complement factor C1q", "T2 sequence (P02745 23-245 limits assumed, chain 1 of 3)": "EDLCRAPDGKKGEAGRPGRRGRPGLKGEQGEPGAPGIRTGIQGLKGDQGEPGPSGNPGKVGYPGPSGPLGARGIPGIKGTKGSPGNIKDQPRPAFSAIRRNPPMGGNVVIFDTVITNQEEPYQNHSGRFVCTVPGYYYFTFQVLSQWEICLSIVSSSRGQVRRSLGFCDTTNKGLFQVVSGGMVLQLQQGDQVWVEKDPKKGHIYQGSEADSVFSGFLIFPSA", "T2 sequence (P02746 28-253 limits assumed, chain 2 of 3)": "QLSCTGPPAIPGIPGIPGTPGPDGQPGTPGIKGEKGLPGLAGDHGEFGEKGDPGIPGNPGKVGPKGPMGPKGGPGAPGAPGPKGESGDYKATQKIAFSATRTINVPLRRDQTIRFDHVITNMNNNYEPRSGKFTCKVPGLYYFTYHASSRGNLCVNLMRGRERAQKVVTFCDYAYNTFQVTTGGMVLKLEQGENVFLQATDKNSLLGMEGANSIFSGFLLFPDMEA", "T2 sequence (P02747 29-245 limits assumed, chain 3 of 3)": "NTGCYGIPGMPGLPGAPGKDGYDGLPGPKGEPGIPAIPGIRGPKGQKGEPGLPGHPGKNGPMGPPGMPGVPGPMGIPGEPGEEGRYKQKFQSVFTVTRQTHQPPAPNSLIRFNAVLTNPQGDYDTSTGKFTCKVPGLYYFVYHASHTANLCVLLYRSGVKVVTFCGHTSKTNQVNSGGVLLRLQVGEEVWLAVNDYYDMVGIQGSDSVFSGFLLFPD", "assay": "ELISA on coated C1q", "method": "(§1) For C1q binding, 96 well plates were coated with C1q (Sigma Cat #: C1740 1 μg/ml) overnight in PBS. After coating, plates were washed 3 times with standard wash buffer (iX PBS+0.05% Tween 20) and blocked with blocking buffer (1% BSA+1× PBS+0.05% Tween 20) for 2 hours at RT. Following blocking, plates were incubated with compound diluted in blocking buffer 100 μL/well and washed 3 times with standard washing buffer. C1q-bound compound was detected by incubation with 1:5000 biotinylated mouse anti-human IgG1(Cat #555869, BD Biosciences) and Streptavidin-HRP (Cat #: 7100-05 Southern Biotech) (100 μl/well) for 1 hour at room temperature followed by washing 3 times with washing buffer, after which color was developed using the standard TMB method according to manufacturer's protocol for 15 minutes. Absorbance was read at 450 nm."}
{"binder": "B3", "binding result": "binds"}
{"binder": "B4", "binding result": "binds"}
{"binder": "B5", "binding result": "binds"}
{"binder": "B6", "binding result": "binds"}
{"binder": "B7", "binding result": "binds"}
{"binder": "B8", "binding result": "binds"}
{"target": "T1, FcγRI", "assay": "BLI (Octet)", "remark": "another data set of the same source", "method": "(§2) Binding of complement-preferential stradomers or parent stradomer G045c to FcγRI, FcγRIIb, FcγRIIIa, FcγRIIa, or FcRn was assessed. RU values of dissociation were measured by biolayer interferometry using a ForteBio Octet instrument. His-tagged receptor proteins were bound to the sensor tip in 1× kinetic analysis buffer from ForteBio after which the on rate of the receptor/protein was measured by transferring the sensor tip to a 1× kinetics buffer containing the purified stradomer of choice. Off rate was measured by transferring the sensor tip to a 1× kinetics buffer, and RU value was calculated from the measured maximum binding using the ForteBio software. Biolayer interferometry detects the binding between a ligand immobilized on the biosensor tip surface and an analyte in solution. When binding occurs it produces an increase in optical thickness at the biosensor tip, which results in a wavelength shift (detected as a response unit of “RU”). The maximum binding level (RU max) is the maximum possible amount of sample binding at equilibrium that saturates the amount of ligand on the sensor surface. The RU 300 is the residual sample binding after 300 seconds of dissociation and is useful to characterize the rate of dissociation of the test article from the test ligand.\n(§3) For each stradomer in Tables 5-9, the level of canonical FcγR binding, complement C1q binding, and CDC inhibition were determined according to the methods described in Example 1."}
{"binder": "B9", "binding result": "binds"}
{"target": "T3, FcγRIIb (UniProt P31994 46-217, limits assumed)", "T3 sequence (looked up)": "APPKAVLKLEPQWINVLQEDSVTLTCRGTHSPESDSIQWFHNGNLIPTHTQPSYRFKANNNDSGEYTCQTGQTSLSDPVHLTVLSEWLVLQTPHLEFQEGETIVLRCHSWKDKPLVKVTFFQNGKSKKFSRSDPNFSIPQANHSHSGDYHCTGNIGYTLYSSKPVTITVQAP", "assay": "BLI (Octet)", "method": "as §2, §3"}
{"binder": "B9", "binding result": "binds"}
{"target": "T1, FcγRI", "assay": "BLI (Octet)", "remark": "another data set of the same source", "method": "as §2"}
{"binder": "B3", "binding result": "binds"}
{"binder": "B4", "binding result": "binds"}
{"binder": "B5", "binding result": "binds"}
{"binder": "B6", "binding result": "binds"}
{"binder": "B7", "binding result": "binds"}
{"binder": "B8", "binding result": "binds"}
{"target": "T3, FcγRIIb", "assay": "BLI (Octet)", "remark": "another data set of the same source", "method": "as §2"}
{"binder": "B3", "binding result": "binds"}
{"binder": "B4", "binding result": "binds"}
{"binder": "B5", "binding result": "binds"}
{"binder": "B7", "binding result": "binds"}
{"binder": "B8", "binding result": "binds"}
{"target": "T2, C1q", "assay": "ELISA on coated C1q", "remark": "another data set of the same source", "method": "as §1, §3"}
{"binder": "B9", "binding result": "binds"}
{"target": "T2, C1q", "assay": "ELISA on coated C1q", "remark": "another data set of the same source"}
{"binder": "B1", "binding result": "no binding"}
{"binder": "B2", "binding result": "no binding"}
{"binder": "B10", "binding result": "no binding"}
{"target": "FcγRIIIa (UniProt P08637 17-208)", "sequence (P08637 17-208 limits assumed)": "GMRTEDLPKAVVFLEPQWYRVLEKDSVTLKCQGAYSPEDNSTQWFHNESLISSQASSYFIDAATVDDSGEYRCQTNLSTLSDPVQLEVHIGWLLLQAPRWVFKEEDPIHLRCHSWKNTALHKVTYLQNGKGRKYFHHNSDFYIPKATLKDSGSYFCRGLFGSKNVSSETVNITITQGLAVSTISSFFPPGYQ", "assay": "BLI (Octet); legend: - indicates no binding", "method": "as §2"}
{"binder": "B3", "binding result": "no binding"}
{"binder": "B4", "binding result": "no binding"}
{"binder": "B5", "binding result": "no binding"}
{"binder": "B6", "binding result": "no binding"}
{"binder": "B7", "binding result": "no binding"}
{"binder": "B8", "binding result": "no binding"}
